Source: paper PMC3366918

Columns and labels:
[1] = biological target: HIV-1 Rev wildtype, fused at its carboxy terminus to CFP (donor) or YFP (acceptor) (HIV-1 strain HXB3); experiment: FRET or BRET
[2] = biological target: ZipRevSLT40: yeast GCN4 leucine zipper fused to the amino terminus of RevSLT40, with CFP or YFP at the carboxy terminus (yeast | HIV-1 strain HXB3); experiment: FRET or BRET

## HIV-1 Rev wildtype, fused at its carboxy terminus to CFP (donor) or YFP (acceptor) (natural protein)
[1]
  percent FRET positive cells: 80.3%

## ZipRevSLT40: yeast GCN4 leucine zipper fused to the amino terminus of RevSLT40, with CFP or YFP at the carboxy terminus
[2]
  percent FRET positive cells: 41.9%
